{
  "source": "patent US20150351390A1",
  "about": "“COMPOSITIONS AND METHODS FOR AUXIN-ANALOG CONJUGATION” (PIONEER HI-BRED INTERNATIONAL, INC., priority 2012, published 2015)",
  "molecules": {"B1": {"name": "OsGH3-8: GH3 protein, accession Q0D4Z6 (protein, listed as Oryza sativa)", "chain": "MAVMTDVSTTGTALRTPAAGAVKEGDVEKLRFIDEMTTNVDAVQERVLGEILGRNAGTEYLTKCGLDGATDRAAFRAKVPVVSYDDLQPYIQRIANGDRSPILSTHPVSEFLTSSGTSAGERKLMPTIMDELDRRQLLYSLLMPVMNLYVPGLDKGKGLYFLFVKSETKTPGGLTARPVLTSYYKSDHFKNRPYDPYHNYTSPTAAILCADAFQSMYAQMVCGLCQRNDVLRLGAVFASGLLRAIRFLQLNWEQLADDIESGELTPRVTDPSVREAVAAILLPDPELAKLIRAECSKGDWAGIITRVWPNTKYLDVIVTGAMAQYIPTLEFYSGGLPMACTMYASSECYFGLNLRPMCDPSEVSYTIMPNMGYFEFLPVDETGAASGDATQLVDLARVEVGREYELVITTYAGLNRYRVGDVLRVTGFHNAAPQFRFVRRKNVLLSIESDKTDEAELQRAVERASALLRPHGASVVEYTSQACTKRIPGHYVIYWELLTKGAGATVVDADTLGRCCLEMEEALNTVYRQSRVADGSIGPLEIRVVRPGTFEELMDYAISRGASINQYKVPRCVTFPPIVELLDSRVVSSHFSPALPHWTPARRSE"}, "B2": {"name": "SbEES01517: GH3 protein, accession EES01517 (protein)", "chain": "MAPMATAAAAAAVGRVTALGVAACERDVEKLEFIEDKTKNFDAEQVRVLAEILARNNGAEYLRRHGMEGRTDRQAFKARVPVVTYEDLRPEIDRIANGDRSNIISSHPITEFLTSSGTSAGERKLMPTIEDELNRRQMLYSLLMPVMNLYVPGLDKGKGLYFLFIKSETKTPGGLPARPVLTSYYKSDHFKHRPYDPYNVYTSPTAAILCTDSFQSMYSQMLCGLVARTEVLRVGAVFASGLLRAIRFLQLHWKELAHDLRTGTLSARVVEPSIRDAVAEVLTKPDAGLADLVEAECGKDNWEGIITRVWPNTKYLDVIVTGAMAQYIPTLKYYSGGLPMACTMYASSECYFGLNLRPMCDPSEVSYTIMPNMGYFELLPHDPEDKPAVSSSSAASAMDHDRLLVDLADAEVGKEYELVITTYAGLCRYRVGDILHVTGFHNAAPQFRFVRRKNVLLSIDSDKTDEAELQSAVERASRLLAPYDARIVEYTSQADATTIPGHYVVYWELMVRDGGASPEPDVFERCCLEMEEALNAVYRQGRNGDAIGPLEIRVVRGGTFEEVMDYAISRGASINQYKAPRCVSFGPIIELLNSRVVSRHFSPACPTYSPHKK", "modifications": "Sorghum bicolor"}, "B3": {"name": "SbEER99639: GH3 protein, accession EER99639 (protein)", "chain": "MAVMAEVVSTTGAALRSPASQPPPPPAAAAVKDADAEKLQFIEEMTSNVDAVQERVLGEILARNADTEYLAKYGITGASDRATFRAKVPMATYEDLQPYIRRIADGDRSPILSGHPVSEFLTSSGTSAGERKLMPTIEDELNRRQLLYSLQMPVMNLYVPGMDKGKALHFLFVKSETKTPGGLAARPVLTSYYKSNHFKNRPFDAYNNYTSPTAAILCADAFQSMYAQMVCGLCQRQDVLRVGAVFASGLLRAIRFLQLNWEQLADDIESGSLTPRITDPSVREAVAGILRPDPELASLVRSECSKGDWAGIITRIWPNTKYLDVIVTGAMAQYIPTLKYYSGGLPMACTMYASSECYFGLNLRPMCDPSEVSYTLMPNMCYFEFLPMDAAASGGGDASQLVDLARVEVGREYELVITTYAGLNRYRVGDVLQVTGFHNTAPQFRFVRRKNVLLSIESDKTDEAELQRAVERASALLRPHGAAVVEYTSQAYTKSIPGHYVIYWELLTKGPAAGAGAAVDRETLDRCCLEMEEALNTVYRQSRVADGSIGPLEIRVVRPGTFEELMDYAISRGASINQYKVPRCVTFPPIIELLDSRVVSTHFSPALPHWTPGQRSHSD", "modifications": "Sorghum bicolor"}, "B4": {"name": "OsGH3-4: GH3 protein, accession AAU90225 (protein, listed as Oryza sativa)", "chain": "MPEAVAAAVSPAAAAATAMCAEHREKLEHIERVTRNAGQEQRRVLEEILAQNAQAEYLRRLGVPGDAPGADEAFRRLAPLVTYEDILPDVLRIANGDTSPILSGKPVSEFLTSSGTSGGERKLMPTIEEEMERRSGLYSLLMPVMSRQVPGLDKGKAMYLYFVKSEWRTPGGLPARPVLTSFYRSRYFLERPHDPYTVYTSPDEAVLCEDAYQSMYAQLICGLVHRADVLRVGAVFASGFLRAIRFLEKHWPSLCRDIRAGELDGGVTDPAVRGAVGRVLRGADPALADAIEAECARPSWQGIIRRVWPSTKYIDVIVTGAMAQYIPTLEFYGGGLPLACTMYASSECYFGLNLNPMCKPSEVAYTLIPTMCYFEFLPVNSGANDVAAPEPDHRGLVDLVDVKLGHEYELVVTTYSGLYRYRVGDVLRVAGFKNAAPMFAFVRRKNVALSIDSDKTDEAELHAAVTEAVQHLAPFGASLVEYTSYADTATTIPGHYVLFWELRSPAGGTPVPASVFEDCCLAVEEGLNSVYRQCRAADRSIGPLEIRVVADGTFDKLMDYALSRGASINQYKAPRCVRPGPVVELLDGRVQATYFSPKCPKWCAGGNKQWISSGAAAKKTTTTCDSLAV"}, "B5": {"name": "OsGH3-2: GH3 protein, accession BAF06259 (protein, listed as Oryza sativa)", "chain": "MAPAAVAAAEAGSKAAAVAGKAVAACERDAEKLEFIEEMTRGFDAVQERVLAAILARNNGAEYLRRHGMEGRTDREAFKARVPVVTYEDLRPEIERIANGDRSNIISSHPITEFLTSSGTSAGERKLMPTIEDELDRRQMLYSLLMPVMNLYVPGLDKGKGLYFLFIKSETKTPGGLPARPVLTSYYKSDHFKHRPFDPYNVYTSPTAAILCTDAFQSMYAQMLCGLVARAEVLRVGAVFASGLLRAIRFLQLHWRELAHDIRTGTLSAKVTEPSIRDAVAEVLAAPDAELAAFVEAECGKDKWEGIITRMWPNTKYLDVIVTGAMAQYIPTLKFYSGGLPMACTMYASSECYFGLNLRPMCDPSEVSYTIMPNMGYFELMPHDPDAPPLPRDAPPPRLVDLADAEVGREYELVITTYAGLCRYRVGDILQVTGFHNAAPQFRFVRRKNVLLSIDSDKTDEAELQAAVERASALLSPYGASIVEYTSQADATTIPGHYVVYWELMVREGGAWPPPAEEEGRGVFERCCLEMEEALNAVYRQGRNGEAIGPLEIRVVRAGTFEEVMDYAISRGASINQYKAPRCVSFGPIIELLNSRVISKHFSPACPKYSPHKK"}, "B6": {"name": "SbEES19769: GH3 protein, accession EES19769 (protein)", "chain": "MPEAPVTTMREAATAAAAAAVPETHRELLEYIERVTAGAAQVQRRVLAEILAQNAPAEYLRRLGVAGDAPGAVDAFRRAAPLVTYEDILPDVLRIANGDTSPILSGKPIREFLTSSGTSGGERKLMPAIADEMDRRSLLYSLLMPVMSQAVPGLDKGKCMYLYFVKAESRTPGGHPARPVLTSFYRSRHFLERPHDPYTVYTSPDEAILCVDAYQSMYAQLLCGLVHRADVLRVGAVFASGFLRAIRFLEKHWQRLCRDIRTGTLDAEAVTDRAVRAAVEQRVLLRADPALADAVEAECARTSWQGIIRRVWPNTKYIDVIVTGAMAQYIPQLEFYGGGLPLTCTMYASSESYFGINLNPMCKPSEVAYTLIPTMCYFEFLPLPQPGDDDAGEPDQRDLVDLVDVKLGHEYELVVTTYSGLYRYRVGDVLRVAGFKNQAPMFNFLRRKNVVLSIDADKTDEAELHAAVSGAVQHLAPFGASLVEYTSYADAGTIPGHYVLFWELRLRAAAAAGATPTPVPASVFEDCCLAVEEALNSVYRQGRAADRSIGPLEIRVVSDGTFDKLMDYALARGASINQYKAPRCVRPGPVVELLDGRVQASYFSPKCPKWSPGVGKQWSSDAAAAAKKAAAGGSNGGGGGGGAVVVA", "modifications": "Sorghum bicolor"}, "B7": {"name": "SbEES01578: GH3 protein, accession EES01578 (protein)", "chain": "MPEAPTTKTTLPAGGFGPGAHREALEFIEHVTANAGKVQRRVLAEILTQNAPAEYLRRYGVPGGSADAVEAFRRVVPLVTYEGLQPDILRIASGDTSPILSGKPISEFLTSSGTSGGERKLMPTIADELDRRSLLYSLQMPVMSQSVPGLDKGKAMYLLFVKAESRTPGGLVARPVLTSYYRSRQFLERPHDPYTEYTSPNEAILCVDSYQSMYTQLLCGLVHRADVLRVGAVFASGFLRAVRFLEKHWPRLCRDIRTGTLDPEITDRAVRDAVVGRVLRGANPALADEIEAECAGPSWEGIIRRLWPRTKYIDVIVTGAMSQYIPTLEFYGGGLPLACTMYASSECYFGLNLKPMCKPGDVAYTLIPTMCYFEFLPLQCSDGKAEPSHRDLVGLVDVKLGHEYELVVTTYSGLYRYRVGDVLRVAGFKNEAPMFKFIRRQNVALSIDSDKTDETELHAAVSGAVQHLAPFGASLVEYTSYADAATIPGHYVLFWELRAGSTAVPASVFEDCCLSVEEALNSVYRQCRACDKSIGPLEIRVVSEGTFDKLMDYAISRGASINQYKAPRCVRPGPVVELLDARVQAKYFSPKCPKWSPGNKQWNAASNGDA", "modifications": "Sorghum bicolor"}},
  "data": [
    {"assay": "LC-MS assay of GH3 conjugation of IAA with Asp or Glu", "type": "biochemical", "conditions": "conjugation of IAA with Asp by recombinant GH3 protein; IAA-Asp product by LC-MS", "method_in_brief": "(§1)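 N-terminal His-tagged GH3 homologs, expressed in E. coli C41(DE3) and Ni-NTA purified, at 44 to 164 μg/mL incubated 3 h at 30 °C in 20 mM Tris-HCl pH 8.0, 5 mM MgCl2, 1 mM DTT, 5 mM ATP, 5 mM auxin (IAA, 2,4-D or dicamba) and 5 mM Asp or Glu. Conjugates quantified by LC-MS against standards after MeOH precipitation; kinetics from Michaelis-Menten fits of initial velocities.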", "units": {"kcat (hrs−1) IAA-Asp": "h⁻¹"}, "values": [
      {"molecule": "B1", "kcat (hrs−1) IAA-Asp": 578.598},
      {"molecule": "B2", "kcat (hrs−1) IAA-Asp": 855.770},
      {"molecule": "B3", "kcat (hrs−1) IAA-Asp": 651.991},
      {"molecule": "B4", "kcat (hrs−1) IAA-Asp": 919.336},
      {"molecule": "B5", "kcat (hrs−1) IAA-Asp": 664.242},
      {"molecule": "B6", "kcat (hrs−1) IAA-Asp": 903.124},
      {"molecule": "B7", "kcat (hrs−1) IAA-Asp": 4419.692}
    ]},
    {"assay": "LC-MS assay of GH3 conjugation of IAA with Asp or Glu", "type": "biochemical", "conditions": "conjugation of IAA with Glu by recombinant GH3 protein; IAA-Glu product by LC-MS", "method_in_brief": "as §1", "units": {"kcat (hrs−1) IAA-Glu": "h⁻¹"}, "values": [
      {"molecule": "B1", "kcat (hrs−1) IAA-Glu": 28.361},
      {"molecule": "B2", "kcat (hrs−1) IAA-Glu": 80.034},
      {"molecule": "B3", "kcat (hrs−1) IAA-Glu": 31.110},
      {"molecule": "B4", "kcat (hrs−1) IAA-Glu": 17.854},
      {"molecule": "B5", "kcat (hrs−1) IAA-Glu": 42.295},
      {"molecule": "B6", "kcat (hrs−1) IAA-Glu": 50.990},
      {"molecule": "B7", "kcat (hrs−1) IAA-Glu": 162.572}
    ]},
    {"assay": "LC-MS assay of GH3 conjugation of 2,4-D with Asp or Glu", "type": "biochemical", "conditions": "conjugation of 2,4-D with Asp by recombinant GH3 protein; 2,4-D-Asp product by LC-MS; 5 mM 2,4-D substrate", "method_in_brief": "as §1", "units": {"kcat (hrs−1) 2,4-D-Asp": "h⁻¹"}, "values": [
      {"molecule": "B1", "kcat (hrs−1) 2,4-D-Asp": 2.917},
      {"molecule": "B2", "kcat (hrs−1) 2,4-D-Asp": 0.953},
      {"molecule": "B3", "kcat (hrs−1) 2,4-D-Asp": 2.476},
      {"molecule": "B4", "kcat (hrs−1) 2,4-D-Asp": 2.002},
      {"molecule": "B5", "kcat (hrs−1) 2,4-D-Asp": 1.548},
      {"molecule": "B6", "kcat (hrs−1) 2,4-D-Asp": 18.287},
      {"molecule": "B7", "kcat (hrs−1) 2,4-D-Asp": 0.765}
    ]},
    {"assay": "LC-MS assay of GH3 conjugation of 2,4-D with Asp or Glu", "type": "biochemical", "conditions": "conjugation of 2,4-D with Glu by recombinant GH3 protein; 2,4-D-Glu product by LC-MS; 5 mM 2,4-D substrate", "method_in_brief": "as §1", "units": {"kcat (hrs−1) 2,4-D-Glu": "h⁻¹"}, "values": [
      {"molecule": "B1", "kcat (hrs−1) 2,4-D-Glu": 0.368},
      {"molecule": "B2", "kcat (hrs−1) 2,4-D-Glu": 0.426},
      {"molecule": "B3", "kcat (hrs−1) 2,4-D-Glu": 0.457},
      {"molecule": "B4", "kcat (hrs−1) 2,4-D-Glu": 0.254},
      {"molecule": "B5", "kcat (hrs−1) 2,4-D-Glu": 0.401},
      {"molecule": "B6", "kcat (hrs−1) 2,4-D-Glu": 4.970},
      {"molecule": "B7", "kcat (hrs−1) 2,4-D-Glu": 0.250}
    ]}
  ]
}
